In patent US20120014954A1 (ABRAXIS BIOSCIENCE, published 2012):

B1: PD 15 (peptide)
peptide: YTRLHHWIPPQR
notes: 12-mer from the Ph.D.-12 phage library; The peptide was cloned into pFUSE-hIgG1-Fc2 and expressed as the PD 15-Fc fusion; also called peptide 15; PD 15-Fc
B2: PD 21 (peptide)
peptide: VTPLLKFRALSS
notes: 12-mer from the Ph.D.-12 phage library; The peptide was cloned into pFUSE-hIgG1-Fc2 and expressed as the PD 21-Fc fusion; also called peptide 21; PD 21-Fc
B3: VGNMPFVHPHQW (peptide)
peptide: VGNMPFVHPHQW
notes: also called clone 192
B4: TQWHDDSTFYWL (peptide)
peptide: TQWHDDSTFYWL
notes: also called clone 186
B5: TTHSELSGYVEL (peptide)
peptide: TTHSELSGYVEL
notes: also called clone 188
B6: VPATRVSPTPYA (peptide)
peptide: VPATRVSPTPYA
notes: also called clone 133
B7: TSYLNSGMIPAR (peptide)
peptide: TSYLNSGMIPAR
notes: also called clone 63
B8: SAHTLAAWFAKP (peptide)
peptide: SAHTLAAWFAKP
notes: also called clone 204
B9: HYFSRTQTLSTL (peptide)
peptide: HYFSRTQTLSTL
notes: also called clone 194
B10: LSTHKLFHSHSQ (peptide)
peptide: LSTHKLFHSHSQ
notes: also called clone 180
B11: AAAPLNLSMTFP (peptide)
peptide: AAAPLNLSMTFP
notes: also called clone 182
B12: KAYLDSIPITPR (peptide)
peptide: KAYLDSIPITPR
notes: also called clone 60
B13: QILGYPTNLGPF (peptide)
peptide: QILGYPTNLGPF
notes: also called clone 135
B14: IPFATAAYNAPG (peptide)
peptide: IPFATAAYNAPG
notes: also called clone 191
B15: VSHPPRFPGWPQ (peptide)
peptide: VSHPPRFPGWPQ
notes: also called clone 59
B16: IDKPLHVVLALG (peptide)
peptide: IDKPLHVVLALG
notes: also called clone 184
B17: ScFv 2-1 (scFv)
scFv: EVQLLESGGGLVQPGGSLRLSCAASGFTFSSYAMSWVRQAPGKGLEWVSMITPLGSTTAYADSVKGRFTISRDNSKNTLYLQMNSLRAEDTAVYYCAKRAGVFDYWGQGTLVTVSSGGGGSGGGGSGGGGSTDIQMTQSPSSLSASVGDRVTITCRASQSISSYLNWYQQKPGKAPKLLIYRASTLQSGVPSRFSGSGSGTDFTLTISSLQPEDFATYYCQQNDSFPTTFGQGTKVEIKR
notes: It was purified from bacteria on a nickel column
B18: ScFv 3-2 (scFv)
scFv: EIVMTQSPGTLSLSPGDRATLSCRASQSVSGYLAWYQQKPGQAPRLLIYDASNRATGIPARFSGSGSGTDFTLTISSLQAEDVAVYYCQQYYSTLPTFGQGTKLEIKRSGGSTITSYNVYYTKLSSSGTQVQLVQSGGGVVQPGRPLKLSCAASGFTFSSYAMHWVRQAPGKGLEWVAVISYDGSNKYYADSVKGRFTISRDNSKNTLYLQMNSLRAEDTAVYYCARDLSWNDAFDIWGQGTMVTVSSAS
B19: AHPWRYTEPWSW (peptide)
peptide: AHPWRYTEPWSW
notes: also called clone 101; clone 154

The molecules below were run against T1, Secreted Protein, Acidic, Rich in Cysteines (SPARC) (UniProt P09486 18-303) (assay: concentration-dependent binding ELISA).
T1 construct: also called osteonectin; SPARC protein
T1 sequence (looked up): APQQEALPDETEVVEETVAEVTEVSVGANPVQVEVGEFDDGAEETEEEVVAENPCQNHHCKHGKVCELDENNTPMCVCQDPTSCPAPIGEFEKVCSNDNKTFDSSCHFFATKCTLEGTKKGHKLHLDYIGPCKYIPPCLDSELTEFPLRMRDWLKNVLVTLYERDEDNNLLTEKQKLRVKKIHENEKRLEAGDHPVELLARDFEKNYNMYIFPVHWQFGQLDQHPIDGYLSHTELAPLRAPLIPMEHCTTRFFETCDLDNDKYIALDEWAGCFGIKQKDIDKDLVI

Molecule	Kd [nM]
B1	41
B2	100

Each molecule was assayed against T1, Secreted Protein, Acidic, Rich in … (assay: concentration-dependent ELISA on SPARC).

Molecule	EC50 (read off the curve) [µg/mL]	Kd [nM]
B1	~2	410
B2	~3	1

What follows are molecules tested against T1, Secreted Protein, Acidic, Rich in … (assay: phage ELISA on SPARC-coated wells; OD column 1 of 3).
Excerpt: (§1) Accordingly, a commercial peptide phage display library (12-mer peptides in M13) was screened for peptides which bind to SPARC. The target, SPARC is an acidic glycoprotein with a PI of 4.6. By immobilization on 96-wells plates with pH 9.6 coating buffer, Ph.D.-12 peptide library was screened four rounds to select peptide binders using phage display technology. Specifically, bound phages were eluted with an acidic eluting solution in the 1st round of screening. Then the screening stringency was enhanced gradually by decreasing the target protein concentration and increasing the percentage of Tween-20 in washing buffer. At the same time, competitive elution with excess target was adopted to improve the screening specificity. Finally, after four rounds of screening, ssDNA of selected clones were subjected to DNA sequencing. At the same time, the binding of the positive phages to the target protein was validated using phage ELISA.

Molecule	OD
B3	0.567
B4	0.903
B5	0.716
B6	0.545
B7	0.688
B8	0.8
B9	0.494
B1	0.597
B10	1.21
B11	0.756
B2	0.45
B12	0.619
B13	0.626
B14	0.564
B15	0.737
B16	0.634

The molecules below were run against T1, Secreted Protein, Acidic, Rich in … (assay: phage ELISA on SPARC-coated wells; OD column 2 of 3).
Excerpt: as §1

Molecule	OD
B3	0.5
B4	0.985
B5	0.682
B6	0.554
B7	0.664
B8	0.748
B9	0.514
B1	0.516
B10	1.28
B11	0.782
B2	0.443
B12	0.611
B13	0.652
B14	0.567
B15	0.628
B16	0.635

Each molecule was assayed against T1, Secreted Protein, Acidic, Rich in … (assay: phage ELISA on SPARC-coated wells; OD column 3 of 3).
Excerpt: as §1

Molecule	OD
B3	0.539
B4	0.882
B5	0.685
B6	0.5
B7	0.602
B8	0.779
B9	0.521
B1	0.576
B10	1.14
B11	0.643
B2	0.438
B12	0.605
B13	0.66
B14	0.58
B15	0.733
B16	0.554

These molecules were tested against T2, HTI SPARC (purified platelet SPARC obtained from HTI) (UniProt P09486 18-303) (assay: Biacore, SPARC immobilised on the chip; S = soluble scFv).
T2 sequence (looked up): T1 sequence (looked up)

Molecule	Kd [nM]
B17	330

These molecules were tested against T3, Abx SPARC (SPARC from engineered HEK293 cells produced by Abraxis) (UniProt P09486 18-303, limits assumed) in the same assay as above.
T3 sequence (looked up): T1 sequence (looked up)

Molecule	Kd [nM]
B17	370

What follows are molecules tested against T2, HTI SPARC (purified platelet SPARC …) (assay: Biacore, SPARC immobilised on the chip; R = refolded scFv).

Molecule	Kd [nM]
B18	78000

What follows are molecules tested against T3, Abx SPARC (SPARC from engineered HEK293 …) in the same assay as above.

Molecule	Kd [nM]
B18	1300

The molecules below were run against Secreted Protein, Acidic, Rich in Cysteines (SPARC) (UniProt P09486) (assay: phage display panning on immobilised SPARC; times isolated among 134 sequenced clones).

Molecule	Count
HLPKSLS (peptide)	1

These molecules were tested against T1, Secreted Protein, Acidic, Rich in … in the same assay as above.
Excerpt: as §1

Molecule	Count
B3	1
B4	2
B5	1
B6	1
B19	6
B7	1
B8	1
B9	1
B1	1
B10	1
B11	1
B2	2
B12	1
B13	1
B14	1
B15	1
B16	2
